In patent US12240900 (MEDICOVESTOR, dated 2025):

Key:
[1] = target: T1, fusion protein containing the extracellular domain of cynomolgus FRalpha and a polyhistidine tag (cynomolgus, UniProt A0A2K5U044 25-233); test: ELISA, cynomolgus FRalpha ECD-His coated
T1 construct: extracellular domain; Coated on ELISA plates; also called cynomolgus FRalpha extracellular domain; not shown: polyhistidine tag
Method: (§1) The affinity of each IgG1 for FRalpha was confirmed by ELISA. Briefly, a fusion protein containing the extracellular domain of human FRalpha and a polyhistidine tag was used to coat ELISA plates, which were washed three times with phosphate-buffered saline (PBS) containing 0.1 percent polysorbate 20 (PBST), then blocked with PBS containing 5 percent powdered milk (PBSM), and then washed three more times with PBST. Wells were then incubated with antibodies at varying concentrations for 60 minutes at room temperature in 1 percent PBSM. Wells were then washed three times with PBST, after which the secondary, horseradish-peroxidase-conjugated antibody anti-human-IgG-Fc-HRP (ab97225, Abcam, United Kingdom) was added at a 1:8000 dilution in 1 percent PBSM for 50 minutes at room temperature. The wells were then washed six times with PBST, after which 3,3', 5,5"-tetramethylbenzidine (TMB) was added. The reaction was stopped with 2 molar sulfuric acid, and the TMB diamine product was quantified at 450 nanometers in a plate reader. Results are depicted in FIG. 2.
The ELISA of the preceding paragraph was repeated with a fusion protein containing the extracellular domain of cynomolgus FRalpha and a polyhistidine tag. Results are depicted in FIG. 3.

[2] = target: T2, fusion protein containing the extracellular domain of human FRalpha and a polyhistidine tag (human, UniProt P15328 25-233); test: ELISA, human FRalpha ECD-His coated
T2 construct: extracellular domain; Coated on ELISA plates; also called human FRalpha extracellular domain; not shown: polyhistidine tag
Method: as §1

[3] = target: T3, human FRalpha expressed on cells (transfected HEK293 cells; SKOV3 human ovarian cancer cells) (human, UniProt P15328 25-234); test: flow cytometry on SKOV3 human ovarian cancer cells that express FRalpha
T3 construct: whole, on cells; also called folate receptor alpha
Method: (§2) The affinity of each antibody was then assessed by flow cytometry. Briefly, HEK293 cells transfected to express FRalpha were washed with fluorescence-activated cell sorting (FACS) buffer, to which the IgGs were added at varying concentrations and incubated at 4 degrees Celsius for 60 minutes. The cells were then centrifuged and washed twice in FACS buffer. A phycoerythrin-labelled anti-human IgG, Fcgamma antibody (109-115-098; Jackson ImmunoResearch, Pennsylvania, United States) was then added to the cells at a 1:200 dilution and incubated at 4 degrees Celsius for 30 minutes. The cells were then washed, resuspended in FACS buffer, and counted by flow cytometry. Results are depicted in FIG. 4.
The flow cytometry experiment of the preceding paragraph was repeated with a human ovarian cancer cell line that expresses FRalpha, SKOV3. Results are depicted in FIGS. 5A and 5B. […] The antibody according to SEQ ID NO: 3-12 was then designated the lead antibody for further development.

[4] = target: T3, human FRalpha expressed on cells …; test: flow cytometry on HEK293 cells transfected to express FRalpha
Method: as §2

T3 sequence (P15328 25-234): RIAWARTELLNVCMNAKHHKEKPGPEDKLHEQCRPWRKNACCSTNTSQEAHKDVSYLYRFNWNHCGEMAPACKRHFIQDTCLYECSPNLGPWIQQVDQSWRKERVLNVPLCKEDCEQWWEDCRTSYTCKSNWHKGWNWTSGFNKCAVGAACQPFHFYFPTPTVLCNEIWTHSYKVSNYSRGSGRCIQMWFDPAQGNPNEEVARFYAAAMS
T2 sequence (P15328 25-233 limits assumed): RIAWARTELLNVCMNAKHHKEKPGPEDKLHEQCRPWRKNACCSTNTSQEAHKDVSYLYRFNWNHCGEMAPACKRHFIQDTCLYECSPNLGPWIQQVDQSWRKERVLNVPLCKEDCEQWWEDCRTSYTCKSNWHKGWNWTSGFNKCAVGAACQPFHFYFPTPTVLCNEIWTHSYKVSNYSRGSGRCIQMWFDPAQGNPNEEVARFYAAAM
T1 sequence (A0A2K5U044 entry or part of it): as the sequence (P15328 25-233 limits assumed) above, with I2T, W4R, R37K, A146P, H171Y counted along it

| EC50 [1] [pM] | EC50 [2] [pM] | EC50 [3] [pM] | EC50 [4] [pM] | Binder |
| --- | --- | --- | --- | --- |
| ~60 | ~50 | < 1000 | ~5000 | lead fully-human anti-FRalpha IgG1 antibody (antibody according to SEQ ID NO: 3-12) (antibody, V domains shown, Human IgG1 / kappa; also called lead antibody; the anti-FRalpha IgG of this disclosure) VH: EVQLLESGGGLVKPGGSLRLSCAASGFTFSSYTMNWVRQAPGKGLEWVSSISSGGGYIYYADSVKDRFTISRDNAKNSLYLQMNSLRAEDTAVYYCAKGDTIMIISAWGQGTTVTVSS VL: DIQLTQSPSTLSASVGDRVTITCRASQSISSWLAWHQQKPGKAPKLLIYAASSLQNGVPSRFSGSGFGTDFTLTISSLQPEDFATYYCQQASSFPLTFGGGTKVEIKR |
| ~160 | ~120 | – | ~4000 | Mirvetuximab (antibody, V domains shown) VH: QVQLVQSGAEVVKPGASVKISCKASGYTFTGYFMNWVKQSPGQSLEWIGRIHPYDGDTFYNQKFQGKATLTVDKSSNTAHMELLSLTSEDFAVYYCTRYDGSRAMDYWGQGTTVTVSS VL: DIVLTQSPLSLAVSLGQPAIISCKASQSVSFAGTSLMHWYHQKPGQQPRLLIYRASNLEAGVPDRFSGSGSKTDFTLTISPVEAEDAATYYCQQSREYPYTFGGGTKLEIK |
